# “Also recorded” adds a separate entry of the source. Counter-ions that a name gives are not always drawn. Like-named read-outs stand apart in the source and are kept apart here.
# Key:
# β2AR [1] = biological target: T1, β2AR (Homo sapiens, UniProt P07550); assay type: binding
# β2AR [2] = biological target: T1, β2AR; conditions: agonist competition binding, Sf9 membranes
# Source text: The IC50 values used for calculations of Ki values were obtained from means of pIC50 values determined by nonlinear regression analysis using Prism (GraphPad Software, San Diego, Calif.) and the s.e. interval from pIC50±s.e.
# β2AR [3] = assay: Size exclusion chromatography of nanobody with purified agonist- or inverse agonist-bound β2AR; assay type: binding, human; conditions: 20 μM β2AR bound to agonist or inverse agonist, 40 μM nanobody
# Procedure: The mixture was then analyzed by Size Exclusion Chromatography (SEC), which separates protein on the basis of size. Seven of the nanobodies bound to purified β2AR and migrated as a complex on SEC only in the presence of agonist and not an inverse agonist (an example is shown in FIG. 1, Panel a, FIGS. 3A, 3B, and FIG. 4).
# Agonist selective nanobodies were identified by size exclusion chromatography following incubation of 20 μM agonist or inverse agonist-(carazolol-) bound β2AR-365N for one hour at RT in the absence or presence of 40 μM nanobody.
# β2AR [4] = biological target: T1, β2AR; assay: Monobromobimane fluorescence of purified mBBr-labeled β2AR; assay type: biochemical; parameters: made in house; conditions: 1 μM nanobody, β2AR bound to full agonist isoproterenol
# Source text: To investigate the effect of nanobodies on movement of the cytoplasmic domain of TM6 we labeled purified β2AR at C265 with monobromobimane (mBB-β2AR). […] In mBB-β2AR, the addition of agonist together with G protein results in larger fluorescent changes than either agonist or G protein alone. This is compatible with the cooperative interactions observed in agonist competition binding assays (Yao et al. 2009).
# Purified β2AR was reacted with 1:1 equivalent of monobromobimane (mBBr, Invitrogen) in 100 mM NaCl, 20 mM HEPES, pH 7.5, 0.1% dodecyl maltoside and incubated overnight on ice in the dark. The fluorophore-labeled receptor was purified right before use by gel filtration on a desalting column equilibrated with the same buffer. […] All experiments were performed at 25° C. […] To determine the effect of nanobodies and ligands, three individual labeled protein samples were incubated with 1 μM nanobody or 10 μM Isoproterenol or both. Emission spectra of the samples were taken after 1 hour incubation.
# [5] = ratio of IC50 with irrelevant Nb to IC50 with 500 nM Nb80, 3H-DHA radioligand
Molecule,Potency shift (β2AR [1]; [5]),enhancement of the affinity of β2AR for the agonist isoproterenol in the presence of nanobody (β2AR [2]),complex formation with β2AR on SEC (β2AR [3]),further results
"CC(CCc1ccc(O)cc1)NCCc1ccc(O)c(O)c1 (centres unmarked) [dobutamine, dobutamine hydrochloride]",2.3,–,–,–
"CC(Cc1ccc(O)cc1)NCC(O)c1cc(O)cc(O)c1 (centres unmarked) [fenoterol, fenoterol hydrobromide]",3.7,–,–,–
"CCC(NC(C)C)C(O)c1ccc(O)c2[nH]c(=O)ccc12 (centres unmarked) [procaterol, procaterol hydrochloride]",2.3,–,–,–
"CC(NCCc1ccc(O)cc1)C(O)c1ccc(O)cc1 (centres unmarked) [ritodrine, ritodrine hydrochloride]",2.7,–,–,–
metaproterenol hemisulfate salt,–,–,–,Potency shift (β2AR [1]): 2.9
"NB72: β2AR-specific nanobody, SEQ ID NO:24; the tested NB72 is assumed to be this one (protein, listed as Lama glama) VHH: QVQLQESGGGLVQPGGSLRLSCAASGFTFSGYAMNWVRQAPGKGPEWVSAINSGGGSTSYADSVKGRFTISRDNAKNTVYLQMNSLKPEDTAVYYCHARDIYSDFLGQYEYDYWGQGTQVTVSS",–,two- to thirty-fold,elutes at an earlier volume,nanobody-induced change of mBBr fluorescence (β2AR [4]; listed as 72): Comparable results; also recorded: stabilize a more active state of the β2AR
"NB67: β2AR-specific nanobody, SEQ ID NO:20 (protein, listed as Lama glama) VHH: QVQLQESGGGLVQAGGSLRLSCAASGTISSFIAMGWYRQSPGKQRELVAGITSGGETNYEDSVKGRFTISRDNAKNTLYLQMNTLKPEDTAVYYCNAQVFADIFNLINYWGQGTQVTVSS",–,two- to thirty-fold,elutes at an earlier volume,nanobody-induced change of mBBr fluorescence (β2AR [4]; listed as 67): Comparable results; also recorded: stabilize a more active state of the β2AR
"NB71: β2AR-specific nanobody, SEQ ID NO:25 (protein, listed as Lama glama) VHH: QVQLQESGGGLVQPGGSLRLSCAASGFAFSSYELRWYRQAPGKQHELVAGITTGGNTYYADSVKGRFTISRDNAKNTVYLQMSNLRPEDTAVYACNANWDLLSDYWGQGTQVTVSS",–,two- to thirty-fold,elutes at an earlier volume,nanobody-induced change of mBBr fluorescence (β2AR [4]; listed as 71): Comparable results; also recorded: stabilize a more active state of the β2AR
"NB84: β2AR-specific nanobody, SEQ ID NO:29; the tested NB84 is assumed to be this one (protein, listed as Lama glama) VHH: QVQLQESGGGLVQAGGSLRLSCAASGSIFSINAMGWYRQAPGKQRELVAAITSGGSTTYADSVKGRFTVSRDNAKNTVYLQMIRLKPEDTAVYYCHVRDIYSDFLGQYEYDYWGQGTQVTVSS",–,two- to thirty-fold,elutes at an earlier volume,nanobody-induced change of mBBr fluorescence (β2AR [4]; listed as 84): Comparable results; also recorded: stabilize a more active state of the β2AR
"NB69: β2AR-specific nanobody, SEQ ID NO:26 (protein, listed as Lama glama) VHH: QVQLQESGGGLVQPGGSLRLSCAASGSIFSINAMGWYRQAPGKQRDLVASITSGGSTNYADSVKGRFTISRDNAKNTVYLQMNSLKPEDTAVYYCNVQGTGPSSWLFNEYDYWGQGTQVTVSS",–,two- to thirty-fold,elutes at an earlier volume,nanobody-induced change of mBBr fluorescence (β2AR [4]; listed as 69): Comparable results; also recorded: stabilize a more active state of the β2AR
"NB65: β2AR-specific nanobody, SEQ ID NO:5 (protein, listed as Lama glama) VHH: QVQLQESGGGLVQAGGSLRLSCAASGSIFSINTMGWYRQAPGKQRELVAAIHSGGSTNYADSVRGRFTISRDNAKNTVYLQMNSLKPEDTAVYYCNVKDYGAVLYEYDYWGQGTQVTVSS",–,two- to thirty-fold,elutes at an earlier volume,nanobody-induced change of mBBr fluorescence (β2AR [4]; listed as 65): Comparable results; also recorded: stabilize a more active state of the β2AR

# Reference: patent US11162953B2, “Protein binding domains stabilizing functional conformational states of GPCRS and uses thereof” (priority 2010, dated 2021)
